In publication PMC3642082 (PLoS Pathogens, 2013) one finds binding result and Kd data, which are given here for four molecules.

Usually Kd stands for the constant that tells how readily two partners part at equilibrium. A higher Kd goes with a looser complex.

Assay [1] deals with T1, JRFL gp120 monomer expressed in HEK 293S cells (HIV-1 clade B, isolate JR-FL, UniProt Q75760, strain).
T1 construct: also called gp120 with immature oligomannose glycans
In words: ITC. As to conditions: both partners purified.

The next assay concerns the target T2, soluble CD4 (UniProt P01730).
T2 construct: also called sCD4
In words: ITC. As to conditions: both partners purified.

B1: PGT121 Fab (Fab, V domains shown)
VH: QMQLQESGPGLVKPSETLSLTCSVSGASISDSYWSWIRRSPGKGLEWIGYVHKSGDTNYSPSLKSRVNLSLDTSKNQVSLSLVAATAADSGKYYCARTLHGRRIYGIVAFNEWFTYFYMDVWGNGTQVTVSS
VL: DISVAPGETARISCGEKSLGSRAVQWYQHRAGQAPSLIIYNNQDRPSGIPERFSGSPDSPFGTTATLTITSVEAGDEADYYCHIWDSRVPTKWVFGGGTTLTVL
Turning to B1, the binding result in assay [1] is recorded as “binds”.

B2: PGT122 Fab (Fab, V domains shown)
VH: QVHLQESGPGLVKPSETLSLTCNVSGTLVRDNYWSWIRQPLGKQPEWIGYVHDSGDTNYNPSLKSRVHLSLDKSKNLVSLRLTGVTAADSAIYYCATTKHGRRIYGVVAFKEWFTYFYMDVWGKGTSVTVSS
VL: VSVAPGQTARITCGEESLGSRSVIWYQQRPGQAPSLIIYNNNDRPSGIPDRFSGSPGSTFGTTATLTITSVEAGDEADYYCHIWDSRRPTNWVFGEGTTLIVL
As to B2, in assay [1], the binding result is given as “binds”.

B3: PGT123 Fab (Fab, V domains shown)
VH: QLHLQESGPGLVKPPETLSLTCSVSGASINDAYWSWIRQSPGKRPEWVGYVHHSGDTNYNPSLKRRVTFSLDTAKNEVSLKLVDLTAADSATYFCARALHGKRIYGIVALGELFTYFYMDVWGKGTAVTVSS
VL: SSMSVSPGETAKISCGKESIGSRAVQWYQQKPGQPPSLIIYNNQDRPAGVPERFSASPDFRPGTTATLTITNVDAEDEADYYCHIYDARGGTNWVFDRGTTLTVL
With B3, the binding result in assay [1] is listed as “binds”.

B4: JRFL gp120 monomer (near full-length gp120 monomeric construct) (natural protein)
chain: not shown
notes: also called monomeric gp120
B4 displayed an equilibrium dissociation constant (Kd) with soluble CD4 of 21 nM. This lies in the double-digit nanomolar range.
